From the MegaScale stability set (Tsuboyama et al. 2023)

B1: r11_951_TrROS_Hall (parent)
chain: KKKYVIKVYFEDTGKEVEIEAESKEEALEAAKRLAEELGLKIKKVEIYP
B2: r4_43_TrROS_Hall (parent)
chain: DLVTIKVPLENLEEIKKAAEKAGFKIVSISYDKENKEVTIVIEKKK

Variants of: B1
Assay: folding stability dG (cDNA display proteolysis); higher = more stable
Details: PBS, room temperature

Q: For RKKYVIKVYFEDTGKEVEIEAESKEEALEAAKRLAEELGLKIKKVEIYP, which “folding stability dG” value is on record?
A: 4.71 kcal/mol

Q: Which “folding stability dG” value does the source give for FKKYVIKVYFEDTGKEVEIEAESKEEALEAAKRLAEELGLKIKKVEIYP here?
A: 4.54 kcal/mol

Q: Which “folding stability dG” value does the source give for QKKYVIKVYFEDTGKEVEIEAESKEEALEAAKRLAEELGLKIKKVEIYP here?
A: 4.6 kcal/mol

Q: With CKKYVIKVYFEDTGKEVEIEAESKEEALEAAKRLAEELGLKIKKVEIYP as the variant, how does the “folding stability dG” value read?
A: 4.57 kcal/mol

Q: With DKKYVIKVYFEDTGKEVEIEAESKEEALEAAKRLAEELGLKIKKVEIYP as the variant, how does the “folding stability dG” value read?
A: 4.22 kcal/mol

Q: For MKKYVIKVYFEDTGKEVEIEAESKEEALEAAKRLAEELGLKIKKVEIYP, which “folding stability dG” value is on record?
A: 4.8 kcal/mol

Q: Which “folding stability dG” value does the source give for NKKYVIKVYFEDTGKEVEIEAESKEEALEAAKRLAEELGLKIKKVEIYP here?
A: 4.47 kcal/mol

Q: With LKKYVIKVYFEDTGKEVEIEAESKEEALEAAKRLAEELGLKIKKVEIYP as the variant, how does the “folding stability dG” value read?
A: 4.52 kcal/mol

Q: For WKKYVIKVYFEDTGKEVEIEAESKEEALEAAKRLAEELGLKIKKVEIYP, which “folding stability dG” value is on record?
A: 4.38 kcal/mol

Q: For AKKYVIKVYFEDTGKEVEIEAESKEEALEAAKRLAEELGLKIKKVEIYP, which “folding stability dG” value is on record?
A: 4.25 kcal/mol

Q: Which “folding stability dG” value does the source give for TKKYVIKVYFEDTGKEVEIEAESKEEALEAAKRLAEELGLKIKKVEIYP here?
A: 4.5 kcal/mol

Q: For GKKYVIKVYFEDTGKEVEIEAESKEEALEAAKRLAEELGLKIKKVEIYP, which “folding stability dG” value is on record?
A: 4.64 kcal/mol

Q: Which “folding stability dG” value does the source give for PKKYVIKVYFEDTGKEVEIEAESKEEALEAAKRLAEELGLKIKKVEIYP here?
A: 4.64 kcal/mol

Q: With YKKYVIKVYFEDTGKEVEIEAESKEEALEAAKRLAEELGLKIKKVEIYP as the variant, how does the “folding stability dG” value read?
A: 4.52 kcal/mol

Q: Which “folding stability dG” value does the source give for HKKYVIKVYFEDTGKEVEIEAESKEEALEAAKRLAEELGLKIKKVEIYP here?
A: 4.46 kcal/mol

Q: With VKKYVIKVYFEDTGKEVEIEAESKEEALEAAKRLAEELGLKIKKVEIYP as the variant, how does the “folding stability dG” value read?
A: 4.51 kcal/mol

Q: Which “folding stability dG” value does the source give for SKKYVIKVYFEDTGKEVEIEAESKEEALEAAKRLAEELGLKIKKVEIYP here?
A: 4.25 kcal/mol

Q: Which “folding stability dG” value does the source give for IKKYVIKVYFEDTGKEVEIEAESKEEALEAAKRLAEELGLKIKKVEIYP here?
A: 4.6 kcal/mol

Q: For EKKYVIKVYFEDTGKEVEIEAESKEEALEAAKRLAEELGLKIKKVEIYP, which “folding stability dG” value is on record?
A: 4.16 kcal/mol

Q: Which “folding stability dG” value does the source give for KDKYVIKVYFEDTGKEVEIEAESKEEALEAAKRLAEELGLKIKKVEIYP here?
A: 3.85 kcal/mol

Q: Which “folding stability dG” value does the source give for KYKYVIKVYFEDTGKEVEIEAESKEEALEAAKRLAEELGLKIKKVEIYP here?
A: 4.42 kcal/mol

Q: For KTKYVIKVYFEDTGKEVEIEAESKEEALEAAKRLAEELGLKIKKVEIYP, which “folding stability dG” value is on record?
A: 4.46 kcal/mol

Q: For KWKYVIKVYFEDTGKEVEIEAESKEEALEAAKRLAEELGLKIKKVEIYP, which “folding stability dG” value is on record?
A: 4.66 kcal/mol

Q: Which “folding stability dG” value does the source give for KCKYVIKVYFEDTGKEVEIEAESKEEALEAAKRLAEELGLKIKKVEIYP here?
A: 4.46 kcal/mol

Q: Which “folding stability dG” value does the source give for KMKYVIKVYFEDTGKEVEIEAESKEEALEAAKRLAEELGLKIKKVEIYP here?
A: 4.59 kcal/mol

Q: Which “folding stability dG” value does the source give for KVKYVIKVYFEDTGKEVEIEAESKEEALEAAKRLAEELGLKIKKVEIYP here?
A: 4.34 kcal/mol

Q: For KNKYVIKVYFEDTGKEVEIEAESKEEALEAAKRLAEELGLKIKKVEIYP, which “folding stability dG” value is on record?
A: 4.24 kcal/mol

Q: For KAKYVIKVYFEDTGKEVEIEAESKEEALEAAKRLAEELGLKIKKVEIYP, which “folding stability dG” value is on record?
A: 4.43 kcal/mol

Q: For KGKYVIKVYFEDTGKEVEIEAESKEEALEAAKRLAEELGLKIKKVEIYP, which “folding stability dG” value is on record?
A: 4.29 kcal/mol

Q: With KIKYVIKVYFEDTGKEVEIEAESKEEALEAAKRLAEELGLKIKKVEIYP as the variant, how does the “folding stability dG” value read?
A: 4.36 kcal/mol

Q: Which “folding stability dG” value does the source give for KPKYVIKVYFEDTGKEVEIEAESKEEALEAAKRLAEELGLKIKKVEIYP here?
A: 3.73 kcal/mol

Q: For KHKYVIKVYFEDTGKEVEIEAESKEEALEAAKRLAEELGLKIKKVEIYP, which “folding stability dG” value is on record?
A: 4.51 kcal/mol

Q: Which “folding stability dG” value does the source give for KFKYVIKVYFEDTGKEVEIEAESKEEALEAAKRLAEELGLKIKKVEIYP here?
A: 4.57 kcal/mol

Q: Which “folding stability dG” value does the source give for KQKYVIKVYFEDTGKEVEIEAESKEEALEAAKRLAEELGLKIKKVEIYP here?
A: 4.34 kcal/mol

Q: With KRKYVIKVYFEDTGKEVEIEAESKEEALEAAKRLAEELGLKIKKVEIYP as the variant, how does the “folding stability dG” value read?
A: 4.48 kcal/mol

Q: For KEKYVIKVYFEDTGKEVEIEAESKEEALEAAKRLAEELGLKIKKVEIYP, which “folding stability dG” value is on record?
A: 4.29 kcal/mol

Q: Which “folding stability dG” value does the source give for KSKYVIKVYFEDTGKEVEIEAESKEEALEAAKRLAEELGLKIKKVEIYP here?
A: 4.52 kcal/mol

Q: Which “folding stability dG” value does the source give for KLKYVIKVYFEDTGKEVEIEAESKEEALEAAKRLAEELGLKIKKVEIYP here?
A: 4.61 kcal/mol

Variants of: B2
Assay: as above
Details: PBS, room temperature

Q: For DLVTIKVPLENLEEIKKAAEKAGFKIVSICYDKENKEVTIVIEKKK, which “folding stability dG” value is on record?
A: 3.53 kcal/mol

Q: With DLVTQKVPLENLEEIKKAAEKAGFKIVSISYDKENKEVTIVIEKKK as the variant, how does the “folding stability dG” value read?
A: 3.15 kcal/mol

Q: For DLVTITVPLENLEEIKKAAEKAGFKIVSISYDKENKEVTIVIEKKK, which “folding stability dG” value is on record?
A: 3.77 kcal/mol

Q: For DLVKIKVPLENLEEIKKAAEKAGFKIVSISYDKENKEVTIVIEKKK, which “folding stability dG” value is on record?
A: 3.56 kcal/mol

Q: With DLVTIKVPLEVLEEIKKAAEKAGFKIVSISYDKENKEVTIVIEKKK as the variant, how does the “folding stability dG” value read?
A: 3.87 kcal/mol

Q: With DLVTIKVPLEWLEEIKKAAEKAGFKIVSISYDKENKEVTIVIEKKK as the variant, how does the “folding stability dG” value read?
A: 3.63 kcal/mol

Q: Which “folding stability dG” value does the source give for DLVTIKAPLENLEEIKKAAEKAGFKIVSISYDKENKEVTIVIEKKK here?
A: 3.81 kcal/mol

Q: With DLVTIKVPLENLEEIKKAADKAGFKIVSISYDKENKEVTIVIEKKK as the variant, how does the “folding stability dG” value read?
A: 3.49 kcal/mol

Q: For DLVTIKVPLENLEERKKAAEKAGFKIVSISYDKENKEVTIVIEKKK, which “folding stability dG” value is on record?
A: 3.42 kcal/mol

Q: Which “folding stability dG” value does the source give for DLVTIKVPLANLEEIKKAAEKAGFKIVSISYDKENKEVTIVIEKKK here?
A: 3.8 kcal/mol

Q: With DLVTIKVPLENLEEIKKAAEKAGFKIVSISYDKENKEVTIVDEKKK as the variant, how does the “folding stability dG” value read?
A: 0.038 kcal/mol

Q: With DLVTIKVPLENLEEIKKAAEKAGFKIVSISYDKENKEVTYVIEKKK as the variant, how does the “folding stability dG” value read?
A: 2.75 kcal/mol

Q: With DLSTIKVPLENLEEIKKAAEKAGFKIVSISYDKENKEVTIVIEKKK as the variant, how does the “folding stability dG” value read?
A: 3.62 kcal/mol

Q: Which “folding stability dG” value does the source give for DLVTIKVPLENLEEIKKAAEKAGFKIVSISYDSENKEVTIVIEKKK here?
A: 3.5 kcal/mol

Q: For DLVTIKVPLENLEEIKKAAEKAGFKIVSISYDNENKEVTIVIEKKK, which “folding stability dG” value is on record?
A: 3.74 kcal/mol

Q: With DLVTIKVPLENLEEIKKAAEKAGFKIVSISYDGENKEVTIVIEKKK as the variant, how does the “folding stability dG” value read?
A: 3.28 kcal/mol
